# Patent US20250388640A1 (SYNTHEKINE, published 2025)
# Numbering of substitutions follows the chain as printed. Numbers in names are those of the source.
# B1: human IL12 mutein, hIL-12p40 E81A, F82H with hIL-12p35-8X His (ligand)
# chain 1: IWELKKDVYVVELDWYPDAPGEMVVLTCDTPEEDGITWTLDQSSEVLGSGKTLTIQVKAHGDAGQYTCHKGGEVLSHSLLLLHKKEDGIWSTDILKDQKEPKNKTFLRCEAKNYSGRFTCWWLTTISTDLTFSVKSSRGSSDPQGVTCGAATLSAERVRGDNKEYEYSVECQEDSACPAAEESLPIEVMVDAVHKLKYENYTSSFFIRDIIKPDPPKNLQLKPLKNSRQVEVSWEYPDTWSTPHSYFSLTFCVQVQGKSKREKKDRVFTDKTSATVICRKNASISVRAQDRYYSSSWSEWASVPCS
# chain 2: RNLPVATPDPGMFPCLHHSQNLLRAVSNMLQKARQTLEFYPCTSEEIDHEDITKDKTSTVEACLPLELTKNESCLNSRETSFITNGSCLASRKTSFMMALCLSSIYEDLKMYQVEFKTMNAKLLMDPKRQIFLDQNMLAVIDELMQALNFNSETVPQKSSLEEPDFYKTKIKLCILLHAFRIRAVTIDRVMSYLNASGSHHHHHHHH
# B2: human IL12 mutein, hIL-12p40 E81A, F82M with hIL-12p35-8X His (ligand)
# chain 1: B1 chain 1 with H60M
# chain 2: B1 chain 2
# B3: human IL12 mutein, hIL-12p40 E81A, F82W with hIL-12p35-8X His (ligand)
# chain 1: B1 chain 1 with H60W
# chain 2: B1 chain 2
# B4: human IL12 mutein, hIL-12p40 E81A, F82D with hIL-12p35-8X His (ligand)
# chain 1: B1 chain 1 with H60D
# chain 2: B1 chain 2
# B5: human IL12 mutein, hIL-12p40 E81A, F82L with hIL-12p35-8X His (ligand)
# chain 1: B1 chain 1 with H60L
# chain 2: B1 chain 2
# B6: human IL12 mutein, hIL-12p40 E81A, F82V with hIL-12p35-8X His (ligand)
# chain 1: B1 chain 1 with H60V
# chain 2: B1 chain 2
# B7: human IL12 mutein, hIL-12p40 E81A, F82Q with hIL-12p35-8X His (ligand)
# chain 1: B1 chain 1 with H60Q
# chain 2: B1 chain 2
# B8: human IL12 mutein, hIL-12p40 E81A, F82P with hIL-12p35-8X His (ligand)
# chain 1: B1 chain 1 with H60P
# chain 2: B1 chain 2
# B9: human IL12 mutein, hIL-12p40 E81A, F82G with hIL-12p35-8X His (ligand)
# chain 1: B1 chain 1 with H60G
# chain 2: B1 chain 2
# B10: human IL12 mutein, hIL-12p40 E81A, F82C with hIL-12p35-8X His (ligand)
# chain 1: B1 chain 1 with H60C
# chain 2: B1 chain 2
# B11: human IL12 mutein, hIL-12p40 E81A, F82F with hIL-12p35-8X His (ligand)
# chain 1: B1 chain 1 with H60F
# chain 2: B1 chain 2
# B12: human IL12 mutein, hIL-12p40 E81A, F82R with hIL-12p35-8X His (ligand)
# chain 1: B1 chain 1 with H60R
# chain 2: B1 chain 2
# B13: human IL12 mutein, hIL-12p40 E81A, F82I with hIL-12p35-8X His (ligand)
# chain 1: B1 chain 1 with H60I
# chain 2: B1 chain 2
# B14: human IL12 mutein, hIL-12p40 E81A, F82T with hIL-12p35-8X His (ligand)
# chain 1: B1 chain 1 with H60T
# chain 2: B1 chain 2
# B15: human IL12 mutein, hIL-12p40 E81A, F82Y with hIL-12p35-8X His (ligand)
# chain 1: B1 chain 1 with H60Y
# chain 2: B1 chain 2
# B16: human IL12 wild type (hIL-12p40 wild type with hIL-12p35-8X His) (ligand)
# chain 1: B1 chain 1 with A59E, H60F
# chain 2: B1 chain 2
# B17: human IL12 mutein, hIL-12p40 E81S, F82A with hIL-12p35-8X His (ligand)
# chain 1: B1 chain 1 with A59S, H60A
# chain 2: B1 chain 2
# B18: human IL12 mutein, hIL-12p40 E81G, F82A with hIL-12p35-8X His (ligand)
# chain 1: B1 chain 1 with A59G, H60A
# chain 2: B1 chain 2
# B19: human IL12 mutein, hIL-12p40 E81N, F82A with hIL-12p35-8X His (ligand)
# chain 1: B1 chain 1 with A59N, H60A
# chain 2: B1 chain 2
# Target: T1, hIL-12 receptor signaling complex (hIL-12Rβ1 and hIL-12Rβ2) (human, UniProt P42701 24-662; Q99665 24-862)
# T1 sequence (Q99665 24-862, chain 2 of 2, other chains not shown): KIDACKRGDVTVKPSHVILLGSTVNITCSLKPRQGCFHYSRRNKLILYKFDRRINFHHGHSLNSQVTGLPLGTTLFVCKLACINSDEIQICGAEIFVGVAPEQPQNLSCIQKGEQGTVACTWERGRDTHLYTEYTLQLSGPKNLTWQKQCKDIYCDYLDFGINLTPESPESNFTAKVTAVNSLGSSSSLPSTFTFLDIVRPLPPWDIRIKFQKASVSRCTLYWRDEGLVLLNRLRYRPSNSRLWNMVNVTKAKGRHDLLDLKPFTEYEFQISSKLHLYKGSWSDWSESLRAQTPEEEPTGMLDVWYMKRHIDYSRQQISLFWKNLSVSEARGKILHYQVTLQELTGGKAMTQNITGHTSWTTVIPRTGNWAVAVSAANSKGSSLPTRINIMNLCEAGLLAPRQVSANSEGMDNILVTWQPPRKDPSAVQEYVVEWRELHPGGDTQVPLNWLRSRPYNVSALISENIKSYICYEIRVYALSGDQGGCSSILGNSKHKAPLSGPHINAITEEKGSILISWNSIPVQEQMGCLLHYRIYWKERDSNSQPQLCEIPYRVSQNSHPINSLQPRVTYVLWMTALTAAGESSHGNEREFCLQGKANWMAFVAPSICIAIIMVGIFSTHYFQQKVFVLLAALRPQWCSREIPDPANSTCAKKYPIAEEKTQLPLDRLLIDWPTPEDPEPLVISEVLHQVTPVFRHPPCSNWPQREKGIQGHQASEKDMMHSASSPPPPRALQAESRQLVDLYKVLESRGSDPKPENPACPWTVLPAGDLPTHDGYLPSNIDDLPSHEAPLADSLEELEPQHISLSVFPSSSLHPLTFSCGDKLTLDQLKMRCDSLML
# Test: cell-based or functional assay
"pSTAT4 [gMFI] EC50, CD8+ T Cells [nM]","pSTAT4 [gMFI] EC50, CD56hi NK Cells [nM]","pSTAT4 [gMFI] Emax, CD8+ T Cells [gMFI]","pSTAT4 [gMFI] Emax, CD56hi NK Cells [gMFI]",Binder
4.04,8.57,108000,33500,B1
2.64,4.26,109000,32200,B2
1.22,1.82,111000,30700,B3
8.72,15.9,84000,23300,B4
3.12,7.21,100000,31100,B5
4.33,17.2,102000,36800,B6
4.92,9.87,91400,25900,B7
2.87,8.04,94000,29600,B8
4.92,13.5,98200,30300,B9
12.7,30,87500,27000,B10
0.2,0.63,107000,36600,B11
5.54,7.62,101000,28000,B12
5.72,10.4,106000,30500,B13
4.5,10.3,101000,29300,B14
0.37,1.19,108000,35700,B15
0.03,0.06,121000,37700,B16

# Target: T1, hIL-12 receptor signaling complex …
# Test: cell-based or functional assay
# Remark: another data set of the same source
"IFNy [gMFI] EC50, CD8+ T Cells [nM]","IFNy [gMFI] EC50, CD56hi NK Cells [nM]","IFNy [gMFI] Emax, CD8+ T Cells [gMFI]","IFNy [gMFI] Emax, CD56hi NK Cells [gMFI]",Binder
0.21,0.73,11300,206000,B17
0.14,0.29,10700,181000,B18
0.43,0.6,11400,165000,B19

# Target: T1, hIL-12 receptor signaling complex …
# Test: cell-based or functional assay
# Remark: another data set of the same source
"IFNy [%+] EC50, CD8+ T Cells [nM]","IFNy [%+] EC50, CD56hi NK Cells [nM]","IFNy [%+] Emax, CD8+ T Cells [%+]","IFNy [%+] Emax, CD56hi NK Cells [%+]",Binder
0.101,0.014,69,94.9,B17
0.08,0.01,67.4,93.8,B18
0.195,0.022,68.2,92.8,B19

# Target: T1, hIL-12 receptor signaling complex …
# Test: cell-based or functional assay
# Remark: another data set of the same source
"pSTAT4 [%+] EC50, CD8+ T Cells [nM]","pSTAT4 [%+] EC50, CD56hi NK Cells [nM]","pSTAT4 [%+] Emax, CD8+ T Cells [%+]","pSTAT4 [%+] Emax, CD56hi NK Cells [%+]",Binder
0.55,0.97,79.6,89.7,B1
0.52,0.74,82.2,88.1,B2
0.29,0.39,84.1,88.4,B3
2.13,3.51,76.6,84.1,B4
0.71,1.08,80.2,89.1,B5
0.76,1.15,80.9,89.3,B6
1.08,2.05,78.5,85.1,B7
0.71,1.15,79.7,87.6,B8
1,1.7,80.1,88,B9
3.4,5.08,79,85.2,B10
0.07,0.13,83.3,93.5,B11
0.98,1.36,80.2,86.9,B12
0.67,0.9,79.2,86,B13
0.87,1.9,81.2,88.2,B14
0.09,0.19,83.5,91.7,B15
0.01,0.01,85,91.4,B16
